# According to patent US20030186258:
# Target: fusion protein PNP20aa-hGH (UniProt P01241)
# Sequence (P01241 27-217): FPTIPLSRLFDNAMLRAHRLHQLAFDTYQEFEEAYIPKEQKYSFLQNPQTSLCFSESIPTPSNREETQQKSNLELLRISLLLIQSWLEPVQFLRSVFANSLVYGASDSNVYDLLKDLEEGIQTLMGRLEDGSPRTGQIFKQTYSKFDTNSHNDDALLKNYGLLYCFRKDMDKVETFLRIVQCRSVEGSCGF
substance,measurement,value
ss-Kex1 protease immobilised on Eupergit C250L resin,"digestion of the fused protein (SDS-PAGE), 15 hours",almost complete: digestion is obtained after 15 hours
